Literature values, collected in patent US20210330752A1, “FEED SUPPLEMENTS” (OmniGen Research, LLC, priority 2018, published 2021).

Test system: binding protein

Substance: Insulin-like growth factor-1 [IGF-1]
- IGF-1 in plasma bound to a binding protein: more than 99%
